Assay results published in US20240368242A1.
pKd: −log10 of the molar value. Values belong to the substance of their own block, whether it stands above or below them.

Legend:
[1] = target: recombinant human CD47 protein (human) (UniProt Q08722); assay: SPR, binding to human CD47
Human FcγR1A = assay: SPR, binding to human FcγR1A
Human FcRn (human) = Human FcRn (human) (UniProt P55899); assay: SPR, binding to human FcRn
FcRn-His (Example 11) = assay: SPR (BioRad ProteOn XPR 360), His-tagged target chip-bound
[2] = target: murine OX40 expressed on CHOK1 cells (CHOK1/mOX40) (murine) (UniProt P47741); assay: flow cytometry on CHOK1-mOX40 cells
Sequence of murine OX40 expressed on CHOK1 cells (CHOK1/mOX40) (murine) (P47741 20-272): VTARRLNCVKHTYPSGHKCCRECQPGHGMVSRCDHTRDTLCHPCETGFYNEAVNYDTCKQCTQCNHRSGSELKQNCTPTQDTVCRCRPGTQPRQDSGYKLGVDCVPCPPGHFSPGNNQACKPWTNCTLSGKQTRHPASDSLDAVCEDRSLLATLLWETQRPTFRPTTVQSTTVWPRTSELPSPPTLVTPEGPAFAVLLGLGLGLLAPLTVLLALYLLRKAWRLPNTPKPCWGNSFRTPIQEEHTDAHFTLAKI

Sequence of recombinant human CD47 protein (human) (Q08722 19-139 limits assumed): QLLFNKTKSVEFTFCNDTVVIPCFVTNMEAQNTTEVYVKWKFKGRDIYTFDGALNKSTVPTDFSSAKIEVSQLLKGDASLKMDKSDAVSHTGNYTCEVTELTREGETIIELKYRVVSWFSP
Sequence of Human FcγR1A (chain, as listed by the source limits assumed): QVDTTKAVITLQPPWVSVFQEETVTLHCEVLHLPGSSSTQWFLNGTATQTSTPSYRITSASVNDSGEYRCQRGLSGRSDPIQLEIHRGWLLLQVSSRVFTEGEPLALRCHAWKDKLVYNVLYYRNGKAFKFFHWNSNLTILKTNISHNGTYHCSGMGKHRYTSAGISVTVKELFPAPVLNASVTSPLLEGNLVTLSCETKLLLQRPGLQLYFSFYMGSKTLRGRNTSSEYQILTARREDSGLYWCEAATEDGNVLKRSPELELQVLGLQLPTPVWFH

pKd [1]: 8.50 | koff [1]: 0.00239 s⁻¹ | kon [1]: 756000 M⁻¹ s⁻¹
Substance: CD172a-Fc Cntl (Fc fusion)

koff (Human FcγR1A): 0.00044 s⁻¹ | kon (Human FcγR1A): 24900 M⁻¹ s⁻¹ | koff (Human FcRn (human)): 0.0046 s⁻¹ | kon (Human FcRn (human)): 945000 M⁻¹ s⁻¹
Substance: IgG1 (antibody)

pKd (FcRn-His (Example 11)): 8.09 | koff (FcRn-His (Example 11)): 0.0242 s⁻¹ | kon (FcRn-His (Example 11)): 3e+06 M⁻¹ s⁻¹
Substance: IgG2A (control protein, Example 11) (antibody)

affinity (cell binding assay) [2]: 15.2 nM
Substance: murine TIM3-Fc-OX40L chimeric protein (from UniProt Q8VIM0 20-193; P43488 51-198) (Fc fusion)
